Measurements taken from paper PMC12290929, “Analytical and Structural Evaluation of Recombinant Human Serum Albumin and Fragment F8 for Aptamer-Based Urinary Biomarker Detection”.

Legend:
rHSA (rice) = rHSA (rice) (Homo sapiens, UniProt P02768 25-609); experiment: graphene oxide fluorescence recovery (Cy5 aptasensor); GO-quenched aptamer; protein 0.37-1500 ug/mL; sigmoidal, R2 > 0.99; lower fluorescence than E. coli proteins; PBS pH 7.4, graphene oxide (15 uL of 5 mg/mL) + Cy5-H8 (15 uL of 5 uM) preincubated 5 min at room temperature, 200 uL final volume, 30 min with protein in the dark, ex 630/em 670 nm; conditions: protein: commercial; label: 5'-Cy5
rHSA (E. coli) = rHSA (E. coli) (Homo sapiens, UniProt P02768 25-609); experiment: graphene oxide fluorescence recovery (Cy5 aptasensor); GO-quenched aptamer; protein 0.37-1500 ug/mL; sigmoidal, R2 > 0.99; PBS pH 7.4, graphene oxide (15 uL of 5 mg/mL) + Cy5-H8 (15 uL of 5 uM) preincubated 5 min at room temperature, 200 uL final volume, 30 min with protein in the dark, ex 630/em 670 nm; conditions: protein: recombinant; tags: His-tag; label: 5'-Cy5
rF8 (HSA fragment F8) = rF8 (HSA fragment F8) (Homo sapiens, UniProt P02768); experiment: graphene oxide fluorescence recovery (Cy5 aptasensor); GO-quenched aptamer; protein 0.37-1500 ug/mL; sigmoidal, R2 > 0.99; response comparable to full-length rHSA; PBS pH 7.4, graphene oxide (15 uL of 5 mg/mL) + Cy5-H8 (15 uL of 5 uM) preincubated 5 min at room temperature, 200 uL final volume, 30 min with protein in the dark, ex 630/em 670 nm; conditions: protein: recombinant; tags: His-tag; label: 5'-Cy5

Measured: binding result

Sequence of rF8 (HSA fragment F8) (P02768 520-609): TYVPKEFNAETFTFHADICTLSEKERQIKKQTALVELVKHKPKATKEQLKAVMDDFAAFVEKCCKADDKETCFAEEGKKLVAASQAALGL
Sequence of rHSA (E. coli) (P02768 25-609): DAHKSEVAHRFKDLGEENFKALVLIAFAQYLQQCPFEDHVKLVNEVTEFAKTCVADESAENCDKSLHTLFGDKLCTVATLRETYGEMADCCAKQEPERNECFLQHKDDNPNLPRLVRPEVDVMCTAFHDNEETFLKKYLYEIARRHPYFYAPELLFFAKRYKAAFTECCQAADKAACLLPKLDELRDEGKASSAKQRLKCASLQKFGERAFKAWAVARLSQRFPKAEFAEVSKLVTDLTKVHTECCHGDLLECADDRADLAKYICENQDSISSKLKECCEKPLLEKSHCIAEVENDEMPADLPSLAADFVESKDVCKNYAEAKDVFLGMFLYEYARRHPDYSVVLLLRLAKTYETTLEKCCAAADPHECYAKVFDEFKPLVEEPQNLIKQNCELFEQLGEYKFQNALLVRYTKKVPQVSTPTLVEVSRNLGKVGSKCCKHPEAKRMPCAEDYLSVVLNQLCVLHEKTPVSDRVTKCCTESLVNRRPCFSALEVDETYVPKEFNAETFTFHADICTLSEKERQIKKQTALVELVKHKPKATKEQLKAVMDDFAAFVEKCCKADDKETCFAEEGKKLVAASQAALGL
Sequence of rHSA (rice) (P02768 25-609): as above

B1: H8 aptamer (ssDNA)
DNA: ATACCAGCTTATTCAATTCCCCCGGCTTTGGTTTAGAGGTAGTTGCTCATTACTTGTACGCTCCGGATGAGATAGTAAGTGCAATCT
binds: rHSA (rice) | rHSA (E. coli) | rF8 (HSA fragment F8)
